Earlier results on one substance are cited in PMC6784060.

pKd: −log10 of the molar value.

In the series the target is Beclin-1 BH3 (Homo sapiens) (UniProt Q14457).
UniProt Q14457, sequence (Q14457 107-127): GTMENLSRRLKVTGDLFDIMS

A word on the pKd: it is the Kd on a negative log10 scale, so that one unit is a factor of ten. In the case of Bcl-xL (from UniProt Q07817), the negative-log Kd (pKd) is 5.77.
